Laboratory results reported in US20220119825A1, “SCALABLE PEPTIDE-GPCR INT[…] SYSTEMS” (THE TRUSTEES OF COLUMBIA UNIVERSITY IN THE CITY OF NEW YORK, priority 2019, published 2022).
“And” between values parts separate entries of the source, which are not always exact repeats. Equal entries are not always repeated. Where two headings read alike, the source gives them in different places.

Key:
Assay in all cases: cell-based or functional assay
[1] = molecular target: T1, Ct.Ste2, Ste2-like mating GPCR of Candida tropicalis (Candida tropicalis)
T1 chain: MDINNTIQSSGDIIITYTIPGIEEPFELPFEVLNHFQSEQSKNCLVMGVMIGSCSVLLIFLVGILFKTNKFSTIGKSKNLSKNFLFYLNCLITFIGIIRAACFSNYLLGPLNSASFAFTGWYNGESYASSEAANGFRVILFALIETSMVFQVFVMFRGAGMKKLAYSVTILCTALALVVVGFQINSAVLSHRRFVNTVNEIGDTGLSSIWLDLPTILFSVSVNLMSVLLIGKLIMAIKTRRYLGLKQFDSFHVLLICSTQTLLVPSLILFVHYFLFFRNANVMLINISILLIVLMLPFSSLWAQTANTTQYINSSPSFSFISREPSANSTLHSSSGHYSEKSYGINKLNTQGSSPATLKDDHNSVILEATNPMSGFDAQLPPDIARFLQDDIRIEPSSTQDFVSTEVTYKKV

[2] = molecular target: T2, Kp.Ste2, Ste2-like mating GPCR of Komagataella (Pichia) pastoris (Komagataella (Pichia) pastoris)
T2 chain: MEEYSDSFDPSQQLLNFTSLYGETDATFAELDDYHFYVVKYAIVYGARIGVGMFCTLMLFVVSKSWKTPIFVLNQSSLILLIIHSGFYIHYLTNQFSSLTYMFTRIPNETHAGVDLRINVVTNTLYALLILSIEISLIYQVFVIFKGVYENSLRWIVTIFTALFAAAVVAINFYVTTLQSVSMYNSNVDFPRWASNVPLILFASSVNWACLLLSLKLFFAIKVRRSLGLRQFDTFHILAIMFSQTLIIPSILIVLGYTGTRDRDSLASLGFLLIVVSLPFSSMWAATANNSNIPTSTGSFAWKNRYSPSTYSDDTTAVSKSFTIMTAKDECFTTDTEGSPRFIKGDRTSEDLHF

[3] = molecular target: T3, Gc.Ste2, Ste2-like mating GPCR of Geotrichum candidum (Geotrichum candidum)
T3 chain: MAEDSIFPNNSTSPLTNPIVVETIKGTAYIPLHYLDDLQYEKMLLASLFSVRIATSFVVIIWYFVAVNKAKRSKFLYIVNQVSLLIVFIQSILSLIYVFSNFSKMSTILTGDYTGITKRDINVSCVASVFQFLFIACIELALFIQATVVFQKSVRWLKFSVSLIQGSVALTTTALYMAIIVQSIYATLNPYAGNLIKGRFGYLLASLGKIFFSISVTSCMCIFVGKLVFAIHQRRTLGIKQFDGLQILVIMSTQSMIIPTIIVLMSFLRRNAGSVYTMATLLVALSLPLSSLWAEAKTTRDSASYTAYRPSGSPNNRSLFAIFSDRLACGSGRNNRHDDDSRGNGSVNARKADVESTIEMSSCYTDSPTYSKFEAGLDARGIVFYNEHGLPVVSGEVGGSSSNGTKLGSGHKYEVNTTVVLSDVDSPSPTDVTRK

[4] = molecular target: T4, Kl.Ste2, Ste2-like mating GPCR of Kluyveromyces lactis (Kluyveromyces lactis)
T4 chain: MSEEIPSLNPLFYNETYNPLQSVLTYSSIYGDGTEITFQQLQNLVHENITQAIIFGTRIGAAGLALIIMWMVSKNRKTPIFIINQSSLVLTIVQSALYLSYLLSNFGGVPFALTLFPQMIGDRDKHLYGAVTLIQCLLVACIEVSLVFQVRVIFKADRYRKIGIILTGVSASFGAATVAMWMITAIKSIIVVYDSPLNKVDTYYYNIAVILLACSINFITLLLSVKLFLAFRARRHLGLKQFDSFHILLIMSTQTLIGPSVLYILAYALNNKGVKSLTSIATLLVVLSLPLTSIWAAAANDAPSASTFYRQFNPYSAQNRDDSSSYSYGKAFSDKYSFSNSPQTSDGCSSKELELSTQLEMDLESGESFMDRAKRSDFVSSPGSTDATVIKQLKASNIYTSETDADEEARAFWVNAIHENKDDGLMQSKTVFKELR

[5] = molecular target: T5, Sc.Ste2, Saccharomyces cerevisiae mating GPCR Ste2 (Saccharomyces cerevisiae, UniProt D6VTK4 1-431)
T5 sequence: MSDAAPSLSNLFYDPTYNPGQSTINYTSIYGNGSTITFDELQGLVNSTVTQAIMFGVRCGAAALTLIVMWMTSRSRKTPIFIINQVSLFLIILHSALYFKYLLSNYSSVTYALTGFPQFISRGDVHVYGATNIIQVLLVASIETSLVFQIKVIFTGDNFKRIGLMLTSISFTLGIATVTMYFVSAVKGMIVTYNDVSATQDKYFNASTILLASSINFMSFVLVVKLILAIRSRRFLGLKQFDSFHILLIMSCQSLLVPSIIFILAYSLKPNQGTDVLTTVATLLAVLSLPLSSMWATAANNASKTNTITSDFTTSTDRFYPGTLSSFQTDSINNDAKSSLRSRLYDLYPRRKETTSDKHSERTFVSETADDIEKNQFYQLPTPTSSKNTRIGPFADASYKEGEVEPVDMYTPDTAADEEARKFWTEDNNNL

[6] = molecular target: T5, Sc.Ste2, Saccharomyces cerevisiae …; remark: listed apart in the source

## KFKFRLTRYGWFSPN [Ct peptide ligand #1 KFKFRLTRYGWFSPN]
[1]
  Bttm (FUS1p-RFP reporter): 32 fluorescence/A600 (not printed)
  EC50 (FUS1p-RFP reporter): -8.2 log10 M (not printed)
  Fold Change (FUS1p-RFP reporter): 5.2 fold
  Span (FUS1p-RFP reporter): 135 fluorescence/A600 (not printed)
  Top (FUS1p-RFP reporter): 167 fluorescence/A600 (not printed)

## FRWRNNEKNQPFG [Kp peptide ligand #1 (Table 3: …)]
[2]
  Bttm (FUS1p-RFP reporter): 44.8 fluorescence/A600 (not printed)
  EC50 (FUS1p-RFP reporter): -8.2 log10 M (not printed)
  Fold Change (FUS1p-RFP reporter): 6 fold
  Span (FUS1p-RFP reporter): 224 fluorescence/A600 (not printed)
  Top (FUS1p-RFP reporter): 269 fluorescence/A600 (not printed)

## GDWGWFWYVPRPGDPAM [Gc peptide ligand #1 GDWGWFWYVPRPGDPAM]
[3]
  Bttm (FUS1p-RFP reporter): 22.9 fluorescence/A600 (not printed)
  EC50 (FUS1p-RFP reporter): -6.9 log10 M (not printed)
  Fold Change (FUS1p-RFP reporter): 8.2 fold
  Span (FUS1p-RFP reporter): 164 fluorescence/A600 (not printed)
  Top (FUS1p-RFP reporter): 187 fluorescence/A600 (not printed)

## WSWITLRPGQPIF [Kl peptide ligand #1 WSWITLRPGQPIF]
[4]
  Bttm (FUS1p-RFP reporter): 37.2 fluorescence/A600 (not printed)
  EC50 (FUS1p-RFP reporter): -7.3 log10 M (not printed)
  Fold Change (FUS1p-RFP reporter): 6 fold
  Span (FUS1p-RFP reporter): 186 fluorescence/A600 (not printed)
  Top (FUS1p-RFP reporter): 223 fluorescence/A600 (not printed)

## WHWLQLKPGQPMY [Sc peptide ligand #1 WHWLQLKPGQPMY (S. cerevisiae alpha-factor)]
[5]
  Bttm (FUS1p-RFP reporter): 36.2 fluorescence/A600 (not printed)
  EC50 (FUS1p-RFP reporter): -8.9 log10 M (not printed)
  Fold Change (FUS1p-RFP reporter): 7 fold
  Span (FUS1p-RFP reporter): 217 fluorescence/A600 (not printed)
  Top (FUS1p-RFP reporter): 253 fluorescence/A600 (not printed)
[6]
  EC50 (FUS1p-RFP reporter): 1.25 nM and ~1 nM
